This series concerns the target T1, fluorogenic APP-based peptide MCA-SEVNLDAEFK(DNP)-CONH2.
T1 chain: SEVNLDAEFK

B1: BACE455 (protein)
chain: ETDEEPEEPGRRGSFVEMVDNLRGKSGQGYYVEMTVGSPPQTLNILVDTGSSNFAVGAAPHPFLHRYYQRQLSSTYRDLRKGVYVPYTQGKWEGELGTDLVSIPHGPNVTVRANIAAITESDKFFINGSNWEGILGLAYAEIARIIGGIDHSLYTGSLWYTPIRREWYYEVIIVRVEINGQDLKMDCKEYNYDKSIVDSGTTNLRLPKKVFEAAVKSIKAASSTEKFPDGFWLGEQLVCWQAGTTPWNIFPVISLYLMGEVTNQSFRITILPQQYLRPVEDVATSQDDCYKFAISQSSTGTVMGAVIMEGFYVVFDRARKRIGFAVSACHVHDEFRTAAVEGPFVTLDMEDCGYNIPQTDESTLMTIAYVMAAICALFMLPLCLMVCQWRCLRCLRQQHDDFADDISLLK
Protein B1 displayed a BACE activity over time: mean fluorescence signal of Substrate V cleavage by HEK293 membrane extract, 15 min (mean fluorescence signal) of 125; a BACE activity over time: mean fluorescence signal of Substrate V cleavage by HEK293 membrane extract, 60 min (mean fluorescence signal) of 195; a BACE activity over time: mean fluorescence signal of Substrate V cleavage by HEK293 membrane extract, 120 min (mean fluorescence signal) of 228; a BACE activity over time: mean fluorescence signal of Substrate V cleavage by HEK293 membrane extract, 240 min (mean fluorescence signal) of 239.

The values above are taken from patent US20070142277.
